Data as given in patent US20220221455A1 (GlaxoSmithKline, published 2022).

Target: T1, PE-PilA fusion protein LVL-735 (Haemophilus influenzae)
T1 construct: also called PE-PilA drug substance; PE-PilA DS
T1 chain: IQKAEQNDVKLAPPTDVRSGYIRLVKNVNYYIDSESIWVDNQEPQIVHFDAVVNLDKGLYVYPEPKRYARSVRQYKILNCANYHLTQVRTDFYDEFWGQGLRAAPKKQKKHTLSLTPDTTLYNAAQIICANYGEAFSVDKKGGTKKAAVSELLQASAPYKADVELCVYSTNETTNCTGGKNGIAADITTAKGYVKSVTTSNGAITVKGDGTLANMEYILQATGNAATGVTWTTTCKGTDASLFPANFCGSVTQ
Assay: HDX-MS, antibody/antigen complex at molar ratio 1:1

B1: PEPilA/3 mAb (antibody, V domains shown)
VH: QGQLQQSGPELVKPGASVKMSCKASGYTFTDYVISWVKQRIGQGLEWIGEIHPGSGSIHYNEKFKGKATLTADKSSNTAYMQLSSLTSEDSAVYFCARRGLRRPWFAYWGQGTLVTVSA
VL: DIVLTQSPASLAVSLGQRATISCRASKSVSTSGYSYMHWFQQKPGQPPKLLIYLASNLESGVPARFSGSGSGTDFTLNIHPVEEEDAATYYCQHSRELPLTFGAGTKLELK
notes: Mouse anti-PilA monoclonal antibody; The isotype appears only as 'optionally an IgG2A' in an embodiment; It was biotinylated when used as detection antibody in the sandwich ELISA; also called mAb PEPilA/3; PilA mAb
binding result: binds
